The numbers were not newly measured in article PMC6873222, which cites them from elsewhere.

Broadly, the Kd is the concentration at which binding is half-saturated.

One series deals with SIRPG ECD (Homo sapiens) (UniProt Q9P1W8).
In another series the target is CD55 ECD (Homo sapiens) (UniProt P08174).
Chain of UniProt P08174 (P08174 35-353): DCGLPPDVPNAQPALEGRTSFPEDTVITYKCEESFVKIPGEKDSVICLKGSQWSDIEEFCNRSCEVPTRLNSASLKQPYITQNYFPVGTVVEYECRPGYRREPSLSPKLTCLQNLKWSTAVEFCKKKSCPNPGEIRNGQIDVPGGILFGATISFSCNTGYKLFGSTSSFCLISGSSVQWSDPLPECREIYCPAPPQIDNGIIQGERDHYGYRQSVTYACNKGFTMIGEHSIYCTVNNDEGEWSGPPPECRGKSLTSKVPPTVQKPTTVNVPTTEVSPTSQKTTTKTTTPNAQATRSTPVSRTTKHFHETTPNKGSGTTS

Chain of UniProt Q9P1W8 (Q9P1W8 29-360): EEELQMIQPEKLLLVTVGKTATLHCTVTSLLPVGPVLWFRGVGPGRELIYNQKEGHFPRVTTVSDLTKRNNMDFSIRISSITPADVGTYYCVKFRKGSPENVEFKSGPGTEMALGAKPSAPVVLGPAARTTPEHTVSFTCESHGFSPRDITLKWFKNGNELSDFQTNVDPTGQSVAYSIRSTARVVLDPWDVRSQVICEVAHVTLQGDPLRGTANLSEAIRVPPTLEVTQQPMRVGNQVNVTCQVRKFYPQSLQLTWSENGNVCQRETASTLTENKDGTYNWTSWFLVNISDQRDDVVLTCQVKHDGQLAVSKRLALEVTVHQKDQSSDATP

Turning to CD47 ECD (from UniProt Q08722), the Kd with SIRPG ECD (Homo sapiens) is 23 µM. As for CD97 ECD (from UniProt P48960), in the series with CD55 ECD (Homo sapiens), the Kd is more than 80 µM.
